Results as given in patent publication US20250277029A1 (Amgen, published 2025).

B1: LIBC528148-1 (antibody, V domains shown)
VH: QVQLQESGPGLVKPSQTLSLTCTVSGGSIRRGGDYWSWIRQHPGKGLEWIGHIYQSGQTKYNPKLKGRATISVDTYKNQFSLKLSSVTAADTAVYYCARDYDILTGYSYYYYGMDVWGQGTTVTVSS
VL: DIQLTQSPSTLSASVGDRVTITCRASQSISNYLNWYQQKPGKAPKLLIYAASSLHSGVPSRFSGSGSGTDFTLTISSLQPEDFASYYCQQYQSYPLTFGQGTKVEIKR
B2: LIBC523596-1 (antibody, V domains shown)
VH: QVQLQESGPGLVKPSQTLSLTCTVSGGSIRRGGDYWSWIRQHPGKGLEWIGHVYQSGQTAYNPNFEDRATISVNTYKNQFSLKLSSVTAADTAVYYCAREYDVVSGYSYYYYGMDVWGQGTTVTVSS
VL: DIVMTQSPLSLPVTPGEPASISCRSSQSLLTSSGYNYVDWYLQKPGQSPQLLIYQGSNRASGVPDRFSGSGSGTDFTLKISRVEAEDVGVYYCMQAVKIPRTFGQGTKVEIKR
B3: LIBC673952-1 (IgG1 SEFL2 mAb) (antibody, V domains shown)
VH: QVQLQESGPGLVKPSQTLSLTCTVSGGSIRRGGDYWSWIRQHPGKGLEWIGHVYYTGQTTYNPSFRGRVTISVNTYKNQFSLKLSSVTAADTAVYYCARDYDILTGYSYYYYGLDVWGQGTTVTVSS
VL: DIVMTQSPLSLPVTPGEPASISCRSSQSLLHRSGYNYLDWYLQKPGQSPQLLIYQGSNRASGVPDRFSGSGSGTDFTLKISRVEAEDVGVYYCRQARALPRTFGQGTKVEIKR
B4: LIBC674229-1 (IgG1 SEFL2 mAb) (antibody, V domains shown)
VH: QVQLQESGPGLVKPSQTLSLTCTVSGGSIRRGGDYWSWIRQHPGKGLEWIGHIYQTGQTKYNPSFKGRVRISVNTYKNQFSLKLSSVTAADTAVYYCARGYDVSGYSYYYYGMDVWGQGTTVTVSS
VL: DIVMTQSPLSLPVTPGEPASISCRSSQSLLHRSGYNYLDWYLQKPGQSPQLLIYQGSNRASGVPDRFSGSGSGTDFTLKISRVEAEDVGVYYCMQSLQTPRTFGQGTKVEIKR
B5: LIBC680574-1 (IgG1 SEFL2 mAb) (antibody, V domains shown)
VH: QVQLQESGPGLVKPSQTLSLTCTVSGGSIRRGGDYWAWIRQHPGKGLEWIGHVYYTGSTKYNPSFKDRATISVNTYKNQFSLKLSSVTAADTAVYYCARNYDTLTGYSYYYYGMDVWGQGTTVTVSS
VL: DIQMTQSPSSLSASVGDRVTITCRASQSISSYLNWYQQKPGKAPKLLIYGARRLGSGVPSRFSGSGSGTDFTLTISSLQPEDFATYYCQQYSSLPVTFGGGTKVEIKR
B6: LIBC674090-1 (IgG1 SEFL2 mAb) (antibody, V domains shown)
VH: QVQLQESGPGLVKPSQTLSLTCTVSGGSIRRGGDYWSWIRQHPGKGLEWIGHIYYAGSTAYNPNFRGRVRISVNTYKNQFSLKLSSVTAADTAVYYCARGYDTSGYSYYYYGLDVWGQGTTVTVSS
VL: DIVMTQSPLSLPVTPGEPASISCRSSQSLLHRSGYNYLDWYLQKPGQSPQLLIYQGSNRASGVPDRFSGSGSGTDFTLKISRVEAEDVGVYYCMQSLQTPRTFGQGTKVEIKR
B7: LIBC680812-1 (IgG1 SEFL2 mAb) (antibody, V domains shown)
VH: QVQLQESGPGLVKPSQTLSLTCTVSGGSIRRGGDYWGWIRQHPGKGLEWIGHVYQTGSTKYNPSFKDRATISVNTYKNQFSLKLSSVTAADTAVYYCARNYDTLTGYSYYYYGMDVWGQGTTVTVSS
VL: DIQMTQSPSSLSASVGDRVTITCRASQSISSYLNWYQQKPGKAPKLLIYSARRLSSGVPSRFSGSGSGTDFTLTISSLQPEDFATYYCQQYRSYPITFGGGTKVEIKR
B8: LIBC674200-1 (IgG1 SEFL2 mAb) (antibody, V domains shown)
VH: QVQLQESGPGLVKPSQTLSLTCTVSGGSIRRGGDYWSWIRQHPGKGLEWIGHVYYTGQTAYNPNFRNRVRISVNTYKNQFSLKLSSVTAADTAVYYCARGYDVSGYSYYYYGMDVWGQGTTVTVSS
VL: DIVMTQSPLSLPVTPGEPASISCRSSQSLLHRSGYNYLDWYLQKPGQSPQLLIYLGSNRASGVPGRFSGSGSGTDFTLKISRVEAEDVGVYYCMQSLQTPRTFGQGTKVEIKR
B9: 10D10 (antibody, V domains shown)
VH: QVQLQESGPGLVKPSQTLSLTCTVSGGSIRRGGDYWSWIRQHPGKGLEWIGYIYYSGSTNYNPSLKSRATISVDTSKNQFSLKLSSVTAADTAVYYCARDYDILTGYSYYYYGMDVWGQGTTVTVSS
VL: not shown
B10: LIBC673965-1 (IgG1 SEFL2 mAb) (antibody, V domains shown)
VH: QVQLQESGPGLVKPSQTLSLTCTVSGGSIRRGGDYWSWIRQHPGKGLEWIGHVYYTGQTAYNPSLRGRVRISVNTYKNQFSLKLSSVTAADTAVYYCARGYDTSGYSYYYYGLDVWGQGTTVTVSS
VL: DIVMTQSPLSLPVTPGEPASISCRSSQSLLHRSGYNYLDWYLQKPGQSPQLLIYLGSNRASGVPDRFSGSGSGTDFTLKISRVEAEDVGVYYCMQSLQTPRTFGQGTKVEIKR
B11: LIBC674200-1 (LC: G76D) (IgG1 SEFL2 mAb) (antibody, V domains shown)
VH: QVQLQESGPGLVKPSQTLSLTCTVSGGSIRRGGDYWSWIRQHPGKGLEWIGHVYYTGQTAYNPNFRNRVRISVNTYKNQFSLKLSSVTAADTAVYYCARGYDVSGYSYYYYGMDVWGQGTTVTVSS
VL: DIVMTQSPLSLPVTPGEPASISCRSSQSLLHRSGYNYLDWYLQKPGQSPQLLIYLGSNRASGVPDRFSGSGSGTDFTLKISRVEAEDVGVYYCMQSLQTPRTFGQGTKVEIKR
B12: LIBC673982-1 (IgG1 SEFL2 mAb) (antibody, V domains shown)
VH: QVQLQESGPGLVKPSQTLSLTCTVSGGSIRRGGDYWSWIRQHPGKGLEWIGHIYYTGSTTYNPSFRGRVRISVNTYKNQFSLKLSSVTAADTAVYYCARDYDISGYSYYYYGMDVWGQGTTVTVSS
VL: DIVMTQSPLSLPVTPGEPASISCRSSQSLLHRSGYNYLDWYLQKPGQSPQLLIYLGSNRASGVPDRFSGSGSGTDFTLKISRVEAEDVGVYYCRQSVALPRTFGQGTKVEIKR
B13: LIBC673972-1 (IgG1 SEFL2 mAb) (antibody, V domains shown)
VH: QVQLQESGPGLVKPSQTLSLTCTVSGGSIRRGGDYWSWIRQHPGKGLEWIGHIYYTGQTAYNPNLRNRVRISVNTYKNQFSLKLSSVTAADTAVYYCARGYDASGYSYYYYGLDVWGQGTTVTVSS
VL: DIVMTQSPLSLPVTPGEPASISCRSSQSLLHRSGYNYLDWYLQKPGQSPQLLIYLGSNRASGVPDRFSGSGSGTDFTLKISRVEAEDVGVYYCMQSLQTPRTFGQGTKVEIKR
B14: LIBC680562-1 (IgG1 SEFL2 mAb) (antibody, V domains shown)
VH: QVQLQESGPGLVKPSQTLSLTCTVSGGSIRRGGDYWAWIRQHPGKGLEWIGHIYQTGSTNYNPRFKGRATISVNTYKNQFSLKLSSVTAADTAVYYCARNYDTLTGYSYYYYGMDVWGQGTTVTVSS
VL: DIQMTQSPSSLSASVGDRVTITCRASQSISSYLNWYQQKPGKAPKLLIYSARRLSSGVPSRFSGSGSGTDFTLTISSLQPEDFATYYCQQYAKSPITFGGGTKVEIKR
B15: LIBC681593-1 (IgG1 SEFL2 mAb) (antibody, V domains shown)
VH: QVQLQESGPGLVKPSQTLSLTCTVSGGSIRRGGDYWAWIRQHPGKGLEWIGHIYQTGSTNYNPRFKGRATISVNTYKNQFSLKLSSVTAADTAVYYCARNYDTLTGYSYYYYGMDVWGQGTTVTVSS
VL: DIQMTQSPSSLSASVGDRVTITCRASQSISSYLNWYQQKPGKAPKLLIYNARRLGSGVPSRFSGSGSGTDFTLTISSLQPEDFATYYCQQYRSSPVTFGGGTKVEIKR
B16: LIBC680773-1 (IgG1 SEFL2 mAb) (antibody, V domains shown)
VH: QVQLQESGPGLVKPSQTLSLTCTVSGGSIRRGGDYWAWIRQHPGKGLEWIGHVYYTGSTNYNPRFKDRATISVNTYKNQFSLKLSSVTAADTAVYYCARNYDTVTGYSYYYYGMDVWGQGTTVTVSS
VL: DIQMTQSPSSLSASVGDRVTITCRASQSISSYLNWYQQKPGKAPKLLIYKARLLSSGVPSRFSGSGSGTDFTLTISSLQPEDFATYYCQQYSRLPLTFGGGTKVEIKR
B17: LIBC681594-1 (IgG1 SEFL2 mAb) (antibody, V domains shown)
VH: QVQLQESGPGLVKPSQTLSLTCTVSGGSIRRGGDYWAWIRQHPGKGLEWIGHIYQTGSTNYNPRFKGRATISVNTYKNQFSLKLSSVTAADTAVYYCARNYDTLTGYSYYYYGMDVWGQGTTVTVSS
VL: DIQMTQSPSSLSASVGDRVTITCRASQSISSYLNWYQQKPGKAPKLLIYKARKLSSGVPSRFSGSGSGTDFTLTISSLQPEDFATYYCQQFGSMPLTFGGGTKVEIKR
B18: LIBC528116-1 + VK1 germline fix(es) (IgG1 SEFL2 mAb) (antibody, V domains shown)
VH: QVQLQESGPGLVKPSQTLSLTCTVSGGSIRRGGDYWAWIRQHPGKGLEWIGHVYYTGSTNYNPRFKDRATISVNTYKNQFSLKLSSVTAADTAVYYCARNYDTVTGYSYYYYGMDVWGQGTTVTVSS
VL: DIQLTQSPSTLSASVGDRVTITCRASQSISNYLNWYQQKPGKAPKLLIYAASSLHSGVPSRFSGSGSGTDFTLTISSLQPEDFASYYCQQYQSYPLTFGQGTKVEIKR
B19: LIBC680800-1 (IgG1 SEFL2 mAb) (antibody, V domains shown)
VH: QVQLQESGPGLVKPSQTLSLTCTVSGGSIRRGGDYWAWIRQHPGKGLEWIGHIYQTGSTNYNPRFKGRATISVNTYKNQFSLKLSSVTAADTAVYYCARNYDTLTGYSYYYYGMDVWGQGTTVTVSS
VL: DIQMTQSPSSLSASVGDRVTITCRASQSISSYLNWYQQKPGKAPKLLIYSARALSSGVPSRFSGSGSGTDFTLTISSLQPEDFATYYCQQYRKFPLTFGGGTKVEIKR
B20: LIBC681737-1(LC:P12S) (IgG1 SEFL2 mAb) (antibody, V domains shown)
VH: QVQLQESGPGLVKPSQTLSLTCTVSGGSIRRGGDYWAWIRQHPGKGLEWIGHVYYTGSTNYNPRFKDRATISVNTYKNQFSLKLSSVTAADTAVYYCARNYDTVTGYSYYYYGMDVWGQGTTVTVSS
VL: DIQMTQSPSSLSASVGDRVTITCRASQSISSYLNWYQQKPGKAPKLLIYSARRLASGVPSRFSGSGSGTDFTLTISSLQPEDFATYYCQQYYHPPITFGGGTKVEIKR

molecular target: T1, GFP-fused huCB1-SMALP (human CB1 in styrene maleic acid lipoparticles) (human, UniProt P21554 1-472); experiment: flow cytometry, yeast-displayed IgG, GFP MFI
T1 construct: Prepared as in Luna V. et al. 2018; also called huCB1-GFP-SMALP; wtCB1-SMALP; not shown: GFP fusion
T1 sequence (P21554 whole entry, the tested form may be a part): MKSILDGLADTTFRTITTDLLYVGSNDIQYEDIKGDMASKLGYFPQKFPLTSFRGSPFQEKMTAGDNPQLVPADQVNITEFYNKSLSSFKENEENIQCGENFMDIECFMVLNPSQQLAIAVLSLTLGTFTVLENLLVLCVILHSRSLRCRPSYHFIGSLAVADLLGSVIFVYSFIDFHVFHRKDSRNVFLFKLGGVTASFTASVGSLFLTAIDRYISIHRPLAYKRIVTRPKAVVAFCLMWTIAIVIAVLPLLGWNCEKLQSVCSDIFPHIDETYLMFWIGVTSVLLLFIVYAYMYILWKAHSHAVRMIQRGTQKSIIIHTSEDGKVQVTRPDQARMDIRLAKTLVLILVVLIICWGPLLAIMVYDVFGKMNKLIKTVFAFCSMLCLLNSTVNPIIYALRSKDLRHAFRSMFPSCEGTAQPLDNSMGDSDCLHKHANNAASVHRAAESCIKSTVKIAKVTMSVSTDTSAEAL

With B1 the “100 nM huCB1-GFP-SMALP binding (normalized to 10D10N35Y)” value was 3.38 fold.

molecular target: T1, GFP-fused huCB1-SMALP (human CB1 in …); experiment: flow cytometry, yeast-displayed IgG, GFP MFI; remark: another data set of the same source

For B2, the “100 nM huCB1-SMALP binding (normalized to 10D10)” value was 4.19 fold.

molecular target: human CB1 on stably transfected CB1 CHO cells (human, UniProt P21554 1-472); experiment: cell-based or functional assay
Sequence (P21554 whole entry): as the sequence (P21554 whole entry, the tested form may be a part) above

Compared with B3, B4 is 1.7-fold higher in “IC50 (nM, n = 4), antagonist activity, TR-FRET cAMP assay” value (“IC50 (nM, n = 4), antagonist activity” for short): 2.48 nM for the first, 4.16 nM for the second.

Going from B5 to B6, the “IC50 (nM, n = 4), antagonist activity” value rises from 0.75 nM to 1.76 nM (2.3-fold).

Going from B7 to B8, the “IC50 (nM, n = 4), antagonist activity” value rises from 0.68 nM to 2.39 nM (3.5-fold).

Going from B9 to B10, the “IC50 (nM, n = 4), antagonist activity” value falls from 347 nM to 2.21 nM (160-fold).

B11 and B12 are within 1.5-fold of each other in “IC50 (nM, n = 4), antagonist activity” value: 2.23 nM for the first, 2.11 nM for the second.

Going from B13 to B14, the “IC50 (nM, n = 4), antagonist activity” value falls from 2.43 nM to 0.71 nM (3.4-fold).

B15 and B16 are within 1.5-fold of each other in “IC50 (nM, n = 4), antagonist activity” value: 0.61 nM for the first, 0.74 nM for the second.

Going from B17 to B18, the “IC50 (nM, n = 4), antagonist activity” value rises from 1.24 nM to 2.02 nM (1.6-fold).

Going from B19 to B20, the “IC50 (nM, n = 4), antagonist activity” value falls from 1.57 nM to 0.55 nM (2.9-fold).
